Data from patent US20160184401A1, “NON-AGGLOMERATING BIOCONJUGATES OF AMYLIN AND AMYLIN-MIMETIC COMPOUNDS, COMPOSITIONS COMPRISING THE SAME, AND MAKING AND USE THEREOF” (UNIVERSIDADE FEDERAL DO RIO DE JANEIRO, priority 2013, published 2016).
Ends that are not written are not given here.

Legend:
[1] = Short-term stability with insulin analogues, ThT binding assay; format: physicochemical; details: 10 μM of each compound, 10 mM NaH2PO4 pH 7.4, 24h at 25° C.; FIG. 13A-D
Description: The aggregation ratio of human amylin or its PEGylated derivative upon combination with insulin R, insulin detemir, or insulin glargine was tested by ThT binding assay. Combinations (10 μM of each compound) were incubated with 10 mM NaH2PO4 pH 7.4 and in presence of 10 μM ThT, for 24h at 25° C. Fluorescence variations indicating amyloid fibers formation were monitored by exciting at 450 nm and measuring emission at 482 nm.

[2] = Amyloid aggregation of human amylin by thioflavin T (ThT) binding; format: physicochemical; details: pH 7.4, FIG. 7
Description: Purified monoPEGylated human amylin of example 1 was re-suspended in DMSO and diluted to PBS pH 7.4 and allowed to incubate at 37° C. Samples were evaluated for amyloid aggregates by using the amyloid chromogenic probe thioflavin T (ThT). The employment of ThT binding protocols to measure amyloid fibril formation has already been determined in the art (see, e.g., Levine, 1999). The kinetics of amylin (50 μM of free or hAmy-PEG5k) aggregation was performed by incubating the protein in 10 mM NaH2PO4 pH 7.4 at 25° C. Aggregation was followed by the binding of Thioflavin T (ThT) to amyloid fibrils, by adding 160 μL sample with 40 μL ThT 100 μM and monitoring fluorescence by exciting at 450 nm and measuring emission at 482 nm for 24 h

[3] = Long-term effect of pH on aggregation of hAmyPEG5k; format: physicochemical; details: 7 days at 25° C. then 9 days at 37° C. (16 days total); FIG. 12
Description: In another experimental setting, the influence of pH over the stability of the hAmyPEG5k was also tested for a longer period of time (up to 16 days) and at higher energy environments (37° C.). […] (i.e., 16 days total).

[4] = Pharmacokinetics in rats, plasma ELISA for human amylin; format: in vivo, Harlan Sprague Dawley male rats; details: 100 μg peptide in 500 uL saline, FIG. 8A-C
Description: The pharmacokinetics of the hAmy-PEG5k and hAmy-PEG20k were characterized in vivo in Harlan Sprague Dawley male rats. The animals were housed in a temperature-controlled room with a light-dark cycle of 12 h. Water and food were available ad libitum. Three groups were formed, control (free human amylin, not PEGylated), hAmy-PEG5k and hAmy-PEG20k. Animals received 500 uL of saline containing 100 μg of human amylin peptides, either free human amylin or purified monoPEGylated human amylin derivatives. Blood was collected retro-orbitally from rats (n=3 rats for each time interval), and the plasma was subjected to ELISA assay for human amylin as provided by the manufacturer (Millipore, Cat Number EZHA-52K.

[5] = Isoelectric focusing (pI determination); format: physicochemical; details: IEF, pH 3-10 linear immobilized pH gradient strips; FIG. 9
Description: Sixty micrograms of acetylated human amylin (AcO-hAmy) or hAmyPEG5k were dissolved into 8 M urea, 2% CHAPS and 0.002% bromophenol blue buffer to a final volume of 125 μL. The samples were incubated into a 7 cm pH 3-10 linear immobilized pH gradient strips overnight prior to isoelectric focalization (IEF). The IEF was carried out in MultiPhor II (Pharmacia Biotech) device at 20° C. according to the following conditions, 200 V (1 min), ramping to 3500 V (90 min) and 3500 V (60 min). At the end, the strips were fixed with 0.20% glutaraldehyde (in 30% ethanol, 0.2 M sodium acetate) for 60 min at room temperature, and then stained for peptide identification by Coomassie brilliant blue R-250 (at 0.025% in 40% methanol, 7% acetic acid) for 30 min. The excess of Coomassie was removed by incubation with 0.1% acetic acid until no background visualization. The IEF can be easily calculated from the relationship between displacements in the strips and pH. As depicted in FIG. 9, the acetylation of Lys1 present in AcO-hAmy (FIG. 9A) and the PEGylation in the same site, present in hAmy-PEG5k (FIG. 9B), results in similar effects on the pI of human amylin, […] it to approximately 9.2.

[6] = Short-term pH-dependent aggregation, ThT fluorescence; format: physicochemical; details: pH 3.0 to 10.0, 24h at 25° C.; FIGS. 10, 11
Description: In a first setting, free human amylin, […] incubated in aqueous buffered solutions with different pH (from 3.0 to 10.0) in the presence of ThT. Fluorescence emissions derived from ThT binding to amyloid fibers were monitored for 24h at 25° C. […] These findings support the hypothesis that acylated derivatives of human amylin have increased stability in aqueous solutions, especially, in physiologic pH ranges.

[7] = biological target: RAMP2 (Homo sapiens, UniProt O60895); assay: RAMP2 coreceptor binding, fluorescence anisotropy of RAMP-FITC; details: duplicate assays, FIG. 5
Description: (§1) Purified monoPEGylated human amylin was assayed for RAMP2 and RAMPS coreceptor binding interaction.
(§2) RAMP (receptor activity modifying protein) was labeled with fluorescein isothiocianate for 1 h at 4° C. in PBS ([…]) pH 7.4, and purified by size exclusion chromatography (SEC) in Sepharose G25 (agarose-based chromatography media, provided by the US company GE Healthcare) using the same buffer. Labelling was confirmed by UV absorbance measurements at A280 and A490, allowing estimation of coupling efficiency, relying on about 0.5 fluorescein/RAMP molecule.

[8] = biological target: T1, RAMP3 (Homo sapiens, UniProt O60896); assay: RAMP3 coreceptor binding, fluorescence anisotropy of RAMP-FITC; details: duplicate assays, FIG. 6
T1 sequence (O60896 24-148): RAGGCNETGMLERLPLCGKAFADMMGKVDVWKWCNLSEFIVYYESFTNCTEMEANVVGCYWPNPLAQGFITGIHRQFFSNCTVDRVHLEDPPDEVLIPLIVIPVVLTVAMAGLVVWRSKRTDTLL
Description: as §1, §2

Sequence of RAMP2 (O60895 43-175, species assumed): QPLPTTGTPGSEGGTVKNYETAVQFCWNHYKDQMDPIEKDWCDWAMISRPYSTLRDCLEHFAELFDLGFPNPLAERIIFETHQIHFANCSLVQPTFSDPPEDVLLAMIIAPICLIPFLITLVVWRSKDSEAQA

insulin R: recombinant insulin
aggregation (ThT binding) [1]: negligible aggregation

detemir
aggregation (ThT binding) [1]: negligible aggregation

KCNTATCATQRLANFLVHSSNNFGAILSSTNVGSNTY [human amylin]
aggregation (ThT binding) [1]: aggregates
aggregation (ThT binding to amyloid fibrils) ([2]; 50 μM): aggregates very fast
aggregation (ThT binding to amyloid fibrils) ([2]; in 3 days): almost all free human amylin was aggregated in amyloid form

hAmy-PEG5k: monopegylated amylin obtained by the reaction of human amylin and mPEG 5000 Da (KCNTATCATQRLANFLVHSSNNFGAILSSTNVGSNTY; not fully specified (C-terminus, bridges); cysteine pairing not given here; also: mono-PEGylated with mPEG 5000 Da, site not given here)
aggregation at different pH, long term [3]: remains non-aggregated
plasma decay / duration of stability in plasma [4]: longer duration of stability in plasma
aggregation (ThT binding) [1]: does not
aggregation (ThT binding to amyloid fibrils) ([2]; at day 7): no signs of aggregation
pI [5]: approximately 9.2
aggregation kinetics / aqueous stability (ThT) [6]: improved aqueous stability and lower or absent formation of amyloid fibers

glargine
aggregation (ThT binding) [1]: negligible aggregation

HEWL: unrelated protein hen egg white lisozyme, control for non-specific binding
apparent binding affinity for the coreceptor RAMP2 [7]: nonspecific binding
apparent binding affinity for the coreceptor RAMP3 [8]: nonspecific binding
